Experimental data from US12269859B2, “Synthetic immune receptors and methods of use thereof” (Angeles Therapeutics, Inc., priority 2016, dated 2025).

How the values were obtained:
RAJI cells = test: Jurkat NFAT-GFP assay, coculture with RAJI cells; format: cell-based, human; details: overnight co-culture with RAJI cells; Table 10C
Protocol: (B) Induction of NFAT promoter driven GFP expression. The control vector- and SIR-expressing Jurkat-NFAT-GFP cocultured for 4-24 hours with the target antigen-expressing cell line (described above) and their ability to bind to the target antigen is assayed by measuring induction of GFP expression using Flow Cytometry. Cellular supernatant is collected and assayed for the induction of cytokines (e.g., IL2).
Jurkat NFAT-GFP Assay For Synthetic Immune Receptors. The Jurkat-NFAT-GFP cells are engineered in such a way that the IL-2 promoter, which carries NFAT binding sites, is cloned upstream of the GFP gene. These cells have been used to study signaling via TCR and CAR. The different SIRs were stably expressed in Jurkat NFAT-GFP cells by lentiviral mediated gene transfer, followed by selection with puromycin. The SIR-expressing Jurkat-NFAT-GFP cells were cocultured with the target cells at E:T ratio of approximately 1:2 for approximately 4 hours to 18 hours. When the interaction between SIRs and their target antigen results in activation of the NFAT pathway, GFP expression is induced.
Induction of GFP expression by coculturing of Jurkat-NFAT-GFP cells expressing different SIR constructs and the different target cells was studied essentially as described previously (Wu, Roybal, Puchner, Onuffer, & Lim, 2015). GFP expression was monitored by FACS analysis. […] In panel B, Jurkat cells expressing SIR targeting CDH6 (Clone ID: 051716-J05), CD276 (Clone ID: 050516-Q06) and Her2/neu (Clone ID: 050516-I03) were incubated with SKOV3 (top) and […] (middle and bottom) cells, respectively. […] The Jurkat-NFAT-GFP cells were engineered to express different SIRs targeting other antigens and the experiment repeated upon coculture with the target cells expressing their respective target antigen. The Jurkat-NFAT-GFP (parental) cells were used as control. […] The names of different SIRs, their SEQ ID NOs, component antigen binding domains and TCR chains can be determined by reference to Tables 7A-7H. A SIR is considered positive in the assay in case the SIR expressing Jurkat-NFAT-GFP cells show greater % GFP positive cells when cultured with the target cell line as compared to parental Jurkat-NFAT-GFP cells. […] The signs +/−, +, 2+ etc. after the name of the cell lines indicate the relative degree of positivity on the Jurkat-NFAT-GFP assay as measured by the % GFP positive cells after culture of the SIR expressing Jurkat-NFAT-GFP cells with that cell line.

[1] = test system: target antigen-expressing cell line; test: Jurkat NFAT-GFP assay, coculture with target cell lines expressing the respective target antigen (summary Table 10A); format: cell-based, human; set-up: key: The signs +/−, +, 2+ etc. after the name of the cell lines indicate the relative degree of positivity on the Jurkat-NFAT-GFP assay as measured by the % GFP positive cells; +: relative degree of positivity on the Jurkat-NFAT-GFP assay as measured by the % GFP positive cells; 2+: relative degree of positivity on the Jurkat-NFAT-GFP assay as measured by the % GFP positive cells
Method in brief: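 Coculture of SIR-bearing Jurkat NFAT-GFP reporters with target cells, ~1:2 E:T, ~4–18 h. FACS quantified % GFP+ cells, ranked semi-quantitatively against parental Jurkat-NFAT-GFP.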

B1: 1038 (protein)
chain: MALPVTALLLPLALLLHAARPEIVLTQSPATLSLSPGERATLSCSASSSVSYMHWYQQKPGQAPRLLIYDTSKLASGIPARFSGSGSGTDFTLTISSLEPEDVAVYYCFQGSVYPFTFGQGTKLEIKRLEGKPIPNPLLGLDSTGSGEDLKNVFPPEVAVFEPSEAEISHTQKATLVCLATGFYPDHVELSWWVNGKEVHSGVSTDPQPLKEQPALNDSRYCLSSRLRVSATFWQNPRNHFRCQVQFYGLSENDEWTQDRAKPVTQIVSAEAWGRADCGFTSESYQQGVLSATILYEILLGKATLYAVLVSALVLMAMVKRKDSRGRAKRSGSGATNFSLLKQAGDVEENPGPTSMDWIWRILFLVGAATGAHSFEQVQLQESGPGLVKPSQTLSLTCTVSGGSISTSGMGVGWIRQHPGKGLEWIGHIWWDDDKRYNPALKSRVTISVDTSKNQFSLKLSSVTAADTAVYYCARMELWSYYFDYWGQGTLVTVSSTREQKLISEEDGSGIQNPDPAVYQLRDSKSSDKSVCLFTDFDSQTNVSQSKDSDVYITDKTVLDMRSMDFKSNSAVAWSNKSDFACANAFNNSIIPEDTFFPSPESSCDVKLVEKSFETDTNLNFQNLSVIGFRILLLKVAGFNLLMTLRLWSSRAKRSGSGVKQTLNFDLLKLAGDVESNPGPSRGHMTEYKPTVRLATRDDVPRAVRTLAAAFADYPATRHTVDPDRHIERVTELQELFLTRVGLDIGKVWVADDGAAVAVWTTPESVEAGAVFAEIGPRMAELSGSRLAAQQQMEGLLAPHRPKEPAWFLATVGVSPDHQGKGLGSAVVLPGVEAAERAGVPAFLETSAPRNLPFYERLGFTVTADVEVPEGPRTWCMTRKPGA
modifications: Synthetic polynucleotide encoding a SIR
**Q.** B1 was tested. Which “NFAT-GFP (%)” value (RAJI cells) did it give?
**A.** 4.49%

B2: 11245 (protein)
chain: MALPVTALLLPLALLLHAARPDIQMTQSPSSLSASVGDRVTITCKASDHINNWLAWYQQKPGQAPKLLIYGATTLETGVPSRFSGSGSGTDYTLTISSLQPEDFATYYCQQSWNTPWTFGQGTKLEIKRLEDLKNVFPPEVAVFEPSKAEIAHTQKATLVCLATGFYPDHVELSWWVNGKEVHSGVCTDPQPLKEQPALNDSRYCLSSRLRVSATFWQNPRNHFRCQVQFYGLSENDEWTQDRAKPVTQIVSAEAWGRADCGITSASYHQGVLSATILYEILLGKATLYAVLVSALVLMAMVKRKDSRGRAKRSGSGATNFSLLKQAGDVEENPGPTSMDWIWRILFLVGAATGAHSFEQVQLQQPGAELVKPGASVKMSCKASGYAFSSYWINWMKQKPGQGLEWIGQIYPGDGDTNYNGKFKGRATLTADTSSSTAYMQLSSLTSEDSAVYFCARSITTVVGCAMDYWGQGTSVTVSSTRIQNPDPAVYQLRDSKSSDKSVCLFTDFDSQTNVSQSKDSDVYITDKCVLDMRSMDFKSNSAVAWSNKSDFACANAFNNSIIPEDTFFPSSDVPCDVKLVEKSFETDTNLNFQNLSVIGFRILLLKVAGFNLLMTLRLWSSRAKRSGSGVKQTLNFDLLKLAGDVESNPGPSRGHMTEYKPTVRLATRDDVPRAVRTLAAAFADYPATRHTVDPDRHIERVTELQELFLTRVGLDIGKVWVADDGAAVAVWTTPESVEAGAVFAEIGPRMAELSGSRLAAQQQMEGLLAPHRPKEPAWFLATVGVSPDHQGKGLGSAVVLPGVEAAERAGVPAFLETSAPRNLPFYERLGFTVTADVEVPEGPRTWCMTRKPGA
**Q.** B2 was tested. Which “NFAT-GFP (%)” value (RAJI cells) did it give?
**A.** 71.81%

B3: 102116-A05 (protein)
chain: MRLPAQLLGLLMLWVSGSSGDVVMTQSPLSLPVTPGAPASISCRSSQSIVHSNGNTYLEWYLQKPGQSPKLLIYKVSNRFSGVPDRFSGSGSGTDFTLRISRVEAEDVGIYYCFQGSHVPPTFGPGTKLEIKLEEQKLISEEDLGSGEDLKNVFPPEVAVFEPSKAEIAHTQKATLVCLATGFYPDHVELSWWVNGKEVHSGVCTDPQPLKEQPALNDSRYCLSSRLRVSATFWQNPRNHFRCQVQFYGLSENDEWTQDRAKPVTQIVSAEAWGRADCGITSASYHQGVLSATILYEILLGKATLYAVLVSALVLMAMVKRKDSRGRAKRSGSGATNFSLLKQAGDVEENPGPTSMDWIWRILFLVGAATGAHSFEEVQLVESGGGLVQPGGSLRLSCSASGFTFSSFGMHWVRQAPGKGLEWVAYISSGSSTIYYGDTVKGRFTISRDNAKNSLFLQMSSLRAEDTAVYYCAREGGYYYGRSYYTMDYWGQGTTVTVSTREQKLISEEDLGSGIQNPDPAVYQLRDSKSSDKSVCLFTDFDSQTNVSQSKDSDVYITDKCVLDMRSMDFKSNSAVAWSNKSDFACANAFNNSIIPEDTFFPSSDVPCDVKLVEKSFETDTNLNFQNLSVIGFRILLLKVAGFNLLMTLRLWSSRAKRSGSGVKQTLNFDLLKLAGDVESNPGPSRGHMTEYKPTVRLATRDDVPRAVRTLAAAFADYPATRHTVDPDRHIERVTELQELFLTRVGLDIGKVWVADDGAAVAVWTTPESVEAGAVFAEIGPRMAELSGSRLAAQQQMEGLLAPHRPKEPAWFLATVGVSPDHQGKGLGSAVVLPGVEAAERAGVPAFLETSAPRNLPFYERLGFTVTADVEVPEGPRTWCMTRKPGA
modifications: Synthetic Immune Receptor (SIR)
**Q.** How did the “NFAT-GFP ASSAY Positive Cell lines: RAJI” value ([1]; SIR-expressing Jurkat-NFAT-GFP cells cocultured with RAJI, relative % GFP positive cells) turn out when B3 was run?
**A.** RAJI (+/−), U266

**Q.** And the “NFAT-GFP ASSAY Positive Cell lines: U266” value ([1]; SIR-expressing Jurkat-NFAT-GFP cells cocultured with U266, relative % GFP positive cells)?
**A.** (+/−)

B4: 10815 (protein)
chain: MALPVTALLLPLALLLHAARPDIQMTQSPSSLSASVGDRVTITCKASDHINNWLAWYQQKPGQAPKLLIYGATTLETGVPSRFSGSGSGTDYTLTISSLQPEDFATYYCQQSWNTPWTFGQGTKLEIKRLEIQNPDPAVYQLRDSKSSDKSVCLFTDFDSQTNVSQSKDSDVYITDKCVLDMRSMDFKSNSAVAWSNKSDFACANAFNNSIIPEDTFFPSSDVPCDVKLVEKSFETDTNLNFQNLSVIGFRILLLKVAGFNLLMTLRLWSSRAKRSGSGVKQTLNFDLLKLAGDVESNPGPTSMDWIWRILFLVGAATGAHSFEQVQLQQPGAELVKPGASVKMSCKASGYAFSSYWINWMKQKPGQGLEWIGQIYPGDGDTNYNGKFKGRATLTADTSSSTAYMQLSSLTSEDSAVYFCARSITTVVGCAMDYWGQGTSVTVSSTREDLKNVFPPEVAVFEPSKAEIAHTQKATLVCLATGFYPDHVELSWWVNGKEVHSGVCTDPQPLKEQPALNDSRYCLSSRLRVSATFWQNPRNHFRCQVQFYGLSENDEWTQDRAKPVTQIVSAEAWGRADCGITSASYHQGVLSATILYEILLGKATLYAVLVSALVLMAMVKRKDSRGRAKRSGSGATNFSLLKQAGDVEENPGPSRGHMTEYKPTVRLATRDDVPRAVRTLAAAFADYPATRHTVDPDRHIERVTELQELFLTRVGLDIGKVWVADDGAAVAVWTTPESVEAGAVFAEIGPRMAELSGSRLAAQQQMEGLLAPHRPKEPAWFLATVGVSPDHQGKGLGSAVVLPGVEAAERAGVPAFLETSAPRNLPFYERLGFTVTADVEVPEGPRTWCMTRKPGA
**Q.** B4 was tested. Which “NFAT-GFP (%)” value (RAJI cells) did it give?
**A.** 52.36%

B5: 080816-G03 (protein)
chain: MALPVTALLLPLALLLHAARPLEGKPIPNPLLGLDSTGSGEDLKNVFPPEVAVFEPSKAEIAHTQKATLVCLATGFYPDHVELSWWVNGKEVHSGVCTDPQPLKEQPALNDSRYCLSSRLRVSATFWQNPRNHFRCQVQFYGLSENDEWTQDRAKPVTQIVSAEAWGRADCGITSASYHQGVLSATILYEILLGKATLYAVLVSALVLMAMVKRKDSRGRAKRSGSGATNFSLLKQAGDVEENPGPTSTMALPVTALLLPLALLLHAARPDIVMTQSQKFMSTSVGDRVSIICKASQNVGTFVAWYQQKPGQSPKLLVYSASNRYTGVPDRFTGSGSGTDFTLTINNMQSEDLADYFCRQYSSYPYTFGGGTKLEIKGGGGSGGGGSGGGGSEVQLQQSGPELVKPGASMKISCKASGYSFSAYTMNWVKQSHGKNLEWIGLINPYNGGTNYNQEFEGKATLTVNKSSNTAFMELLSLTSDDSAVYYCARRDWDYFDYWGQGTTLTVSSTREQKLISEEDLGSGTPFPSLAPPIMLLVDGKQQMVVVCLVLDVAPPGLDSPIWFSAGNGSALDAFTYGPSPATDGTWTNLAHLSLPSEELASWEPLVCHTGPGAEGHSRSTQPMHLSGEASTARTCPQEPLRGTPGGALWLGVLRLLLFKLLLFDLLLTCSCLCDPAGPLPSPATTTRLRALGSHRLHPATETGGREATSSPRPQPRDRRWGDTPPGRKPGSPVRAKRSGSGVKQTLNFDLLKLAGDVESNPGPSRSRGHMTEYKPTVRLATRDDVPRAVRTLAAAFADYPATRHTVDPDRHIERVTELQELFLTRVGLDIGKVWVADDGAAVAVWTTPESVEAGAVFAEIGPRMAELSGSRLAAQQQMEGLLAPHRPKEPAWFLATVGVSPDHQGKGLGSAVVLPGVEAAERAGVPAFLETSAPRNLPFYERLGFTVTADVEVPEGPRTWCMTRKPGA
modifications: Polynucleotide encoding a Synthetic Immune Receptor (SIR)
**Q.** Which “NFAT-GFP ASSAY Positive Cell lines” value ([1]; coculture with TT cells) does the source give for B5 here?
**A.** TT (+/−)
